Data reported in US20250340591A1, “COMPOSITION FOR PREVENTING OR TREATING INFLAMMATORY BOWEL DISEASE CONTAINING NOVEL COMPOUND” (ANYGEN CO., LTD., priority 2021, published 2025).
Square brackets hold non-standard residues; d marks the D form. Ends that are not written are not given here. * marks the point of attachment. DAMP‑2 = 1,3-bis(2-cyclohexylethyl) substitution on the histidine imidazole ring (1,3-bis(2-cyclohexylethyl)-2,3-dihydro-1H-imidazol-4-yl side chain), C1=C(*)N(CCC2CCCCC2)CN1CCC1CCCCC1; 2‑(4-tert-butyl)phenyl = 2-(4-tert-butylphenyl) substituent on the histidine imidazole (2-(4-(tert-butyl)phenyl)-1H-imidazol-4-yl), CC(C)(C)c1ccc(*)cc1; DAMP‑5 = 3-(2-cyclohexylethyl) substitution on the histidine imidazole ring (3-(2-cyclohexylethyl)-2,3-dihydro-1H-imidazol-4-yl side chain); DAMP‑3 = 1,3-diphenethyl substitution on the histidine imidazole ring (1,3-diphenethyl-2,3-dihydro-1H-imidazol-4-yl side chain); thiophene = 2-(thiophen-2-yl) substituent on the histidine imidazole (2-(thiophen-2-yl)-1H-imidazol-4-yl), c1csc(*)c1; 4‑methoxybenzhydryl = (4-methoxyphenyl)(phenyl)methyl on the His imidazole, COc1ccc(C(c2ccccc2)*)cc1; 1,2‑diphenyl = 1,2-diphenyl substituents on the histidine imidazole (1,2-diphenyl-1H-imidazol-4-yl); 1‑phenyl = 1-phenyl substituent on the histidine imidazole (1-phenyl-1H-imidazol-4-yl), c1ccc(*)cc1; 2‑phenyl = 2-phenyl substituent on the histidine imidazole (2-phenyl-1H-imidazol-4-yl), c1ccc(*)cc1; 4‑hydroxybenzhydryl = (4-hydroxyphenyl)(phenyl)methyl on the His imidazole, Oc1ccc(C(c2ccccc2)*)cc1; Tyr(3,5-(NO2)2) = N[C@@H](Cc1cc([N+](=O)[O-])c(O)c([N+](=O)[O-])c1)C(=O)O; Tyr(3-NO2) = N[C@@H](Cc1ccc(O)c([N+](=O)[O-])c1)C(=O)O; 4‑methoxylbenzhydryl = COc1ccc(C(c2ccccc2)*)cc1; Biotin = O=C1N[C@H]2[C@H](CS[C@H]2CCCCC(=O)*)N1; dPhe(4-CF3) = N[C@H](Cc1ccc(C(F)(F)F)cc1)C(=O)O; 1‑(4-tert-butyl)phenyl = CC(C)(C)c1ccc(*)cc1; Tyr(3-Cl) = N[C@@H](Cc1ccc(O)c(Cl)c1)C(=O)O; Tyr(3-NH2) = Nc1cc(C[C@H](N)C(=O)O)ccc1O; dPhe(4-Cl) = N[C@H](Cc1ccc(Cl)cc1)C(=O)O; dPhe(4-Me) = Cc1ccc(C[C@@H](N)C(=O)O)cc1; Mtt = Cc1ccc(C(c2ccccc2)(c2ccccc2)*)cc1; Trt = c1ccc(C(c2ccccc2)(c2ccccc2)*)cc1; Benzhydryl = c1ccc(C(c2ccccc2)*)cc1; 2‑cyclohexylethyl = C1CCC(CC*)CC1; Tos = Cc1ccc(S(=O)(=O)*)cc1; Octanoyl = CCCCCCCC(=O)*

T1: GPR39 (G protein coupled receptor 39) (UniProt O43194 1-453, limits assumed)
T1 sequence (looked up): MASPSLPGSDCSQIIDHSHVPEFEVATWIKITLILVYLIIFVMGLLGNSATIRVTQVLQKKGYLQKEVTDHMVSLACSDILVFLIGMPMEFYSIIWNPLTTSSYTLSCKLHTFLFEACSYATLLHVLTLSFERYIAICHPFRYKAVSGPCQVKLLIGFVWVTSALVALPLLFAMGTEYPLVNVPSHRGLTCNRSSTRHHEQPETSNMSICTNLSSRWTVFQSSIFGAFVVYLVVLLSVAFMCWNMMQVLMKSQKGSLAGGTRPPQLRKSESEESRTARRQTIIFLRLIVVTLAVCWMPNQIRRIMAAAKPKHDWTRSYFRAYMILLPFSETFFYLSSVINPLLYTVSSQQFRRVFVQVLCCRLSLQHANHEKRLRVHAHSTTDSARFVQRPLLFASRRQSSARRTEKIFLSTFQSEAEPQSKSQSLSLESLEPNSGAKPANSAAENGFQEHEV


Each binder was assayed against T1, GPR39 (G protein coupled receptor 39) (assay: cell-based or functional assay).

Binder | EC50; SRE-luciferase reporter [nM] | ECmax; SRE-luciferase reporter
H(1‑(4-tert-butyl)phenyl)K(Octanoyl)[dPhe(4-Me)]Y-OH [HKFY-61] | 20 | 9.88 -fold induction over basal
Biotin-H(Trt)K(Octanoyl)FY [HKFY-2] | 140 | 15 -fold induction over basal
H(Trt)K(Octanoyl)[dPhe(4-CF3)]Y-OH [HKFY-76] | 7 | 14.2 -fold induction over basal
H(Benzhydryl)K(Octanoyl)[dPhe(4-Me)][Tyr(3-NO2)]-OH [HKFY-68] | 13 | 10.8 -fold induction over basal
H(DAMP‑2)K(Octanoyl)FY [HKFY-8] | 33600 | 17.3 -fold induction over basal
H(Benzhydryl)K(Octanoyl)[dPhe(4-Me)]Y-NH2 [HKFY-66] | 11 | 20.2 -fold induction over basal
H(1‑phenyl)K(Octanoyl)[dPhe(4-Me)]Y-OH [HKFY-58] | 20 | 9.12 -fold induction over basal
H(Trt)K(Octanoyl)[dF]Y-OH (not fully specified; printed as His(trt)-Lys(caprylic)-d-Phe-Tyr) [HKFY-12] | 35 | 20.7 -fold induction over basal
K(Octanoyl)H(Trt)FY [HKFY-55] | 2490 | 16.8 -fold induction over basal
H(DAMP‑3)K(Octanoyl)FY [HKFY-6] | 68400 | 15 -fold induction over basal
[dH](Benzhydryl)K(Octanoyl)[dPhe(4-Me)]Y-OH [HKFY-62] | 830 | 28.1 -fold induction over basal
HK(Octanoyl)FY (not fully specified (residue 1)) [HKFY-10] | 46500 | 14 -fold induction over basal
H(Benzhydryl)K(Octanoyl)[dPhe(4-Me)][Tyr(3-Cl)]-OH [HKFY-67] | 43 | 10.2 -fold induction over basal
H(4‑hydroxybenzhydryl)K(Octanoyl)[dPhe(4-Me)]Y-OH [HKFY-65] | 3 | 18.3 -fold induction over basal
H(Trt)K(caproic)FYDQQARF (also: C-terminal Phe amide in IUPAC name, not in sequence formula) [HKFY-56] |  | 14.9 -fold induction over basal
H(Mtt)K(Octanoyl)FY [HKFY-5] | 1840 | 16 -fold induction over basal
H(4‑methoxybenzhydryl)K(Octanoyl)[dPhe(4-Me)]Y-OH [HKFY-64] | 7 | 16 -fold induction over basal
HK(Octanoyl)FY (not fully specified; also: His1 substituent: phenethyl or phenylpropyl) [HKFY-19] | 24600 | 18 -fold induction over basal
H(2‑phenylethyl)K(Octanoyl)FY-OH (not fully specified) [HKFY-9] | 42700 | 21 -fold induction over basal
HK(Octanoyl)FY (not fully specified (residue 1)) [HKFY-17] | 8120 | 20 -fold induction over basal
H(Trt)FYDQQARF (also: C-terminal Phe amide in IUPAC name, not in sequence formula) [HKFY-52] | 56400 | 15.5 -fold induction over basal
His(Benzhydryl)-Lys(Octanoyl)-OH [HKFY-79] | 970 | 11.2 -fold induction over basal

Binder | EC50; SRE-luciferase reporter [nM] | ECmax; SRE-luciferase reporter
H(Trt)K(Octanoyl)FY [HKFY-1] | 150 | 20.5 -fold induction over basal
H(Tos)K(Octanoyl)[dPhe(4-Me)]Y-OH [HKFY-75] | 1 | 15.9 -fold induction over basal
H(4‑methoxylbenzhydryl)K(Octanoyl)FY [HKFY-20] | 159000 | 20.3 -fold induction over basal
Biotin-H(Benzhydryl)K(Octanoyl)[dPhe(4-Me)]Y-OH [HKFY-72] | 11 | 10.4 -fold induction over basal
H(2‑cyclohexylethyl)K(Octanoyl)FY [HKFY-11] | 57800 | 22 -fold induction over basal
H(Trt)K(Octanoyl)FS [HKFY-50] | 700 | 16.2 -fold induction over basal
H(2‑(4-tert-butyl)phenyl)K(Octanoyl)[dPhe(4-Me)]Y-OH [HKFY-60] | 190 | 28.2 -fold induction over basal
H(Trt)K(Octanoyl)[dPhe(4-Cl)][dY] [HKFY-15] | 98 | 24.7 -fold induction over basal
H(Trt)[dK](Octanoyl)[dPhe(4-Cl)]Y [HKFY-16] | 240 | 27.9 -fold induction over basal
H(Benzhydryl)K(Octanoyl)[dPhe(4-Me)][Tyr(3-NH2)]-OH [HKFY-70] | 20 | 10.1 -fold induction over basal
H(Trt)K(Octanoyl)[dPhe(4-Cl)]Y [HKFY-13] | 14 | 25.7 -fold induction over basal
H(Trt)GSK(Octanoyl)FY-OH [HKFY-53] | 340 | 8 -fold induction over basal
H(Benzhydryl)K(Octanoyl)[dPhe(4-Me)][Tyr(3,5-(NO2)2)] [HKFY-69] | 15 | 12.2 -fold induction over basal
H(2‑phenyl)K(Octanoyl)[dPhe(4-Me)]Y-OH [HKFY-57] | 260 | 8.5 -fold induction over basal
H(Fm)K(Octanoyl)FY [HKFY-18] | 2290 | 10 -fold induction over basal
[dH](Trt)K(Octanoyl)[dPhe(4-Cl)][dY] [HKFY-14] | 20 | 20.9 -fold induction over basal
H(DAMP‑5)K(Octanoyl)FY [HKFY-7] | 1560 | 16 -fold induction over basal
Lys(Octanoyl)-Phe-Tyr [HKFY-54] | 25900 | 7.8 -fold induction over basal
H(Trt)K(Octanoyl)LY-OH [HKFY-51] | 120 | 14.4 -fold induction over basal
H(thiophene)K(Octanoyl)[dPhe(4-Me)]Y-OH [HKFY-63] | 6 | 13.5 -fold induction over basal
H(1,2‑diphenyl)K(Octanoyl)[dPhe(4-Me)]Y-OH [HKFY-59] | 550 | 6.76 -fold induction over basal
